Data set [1] is described as follows: SV-AUC continuous sedimentation coefficient distributions c(s). Type of data set: physicochemical. Here is the method:
(§1) Sedimentation velocity (SV) experiments were performed using a ProteomLab^TM XL-I, Beckman Coulter analytical ultracentrifuge. The samples were dialyzed against a buffer containing 20 mM Tris-HCl (pH 7.5), 150 mM NaCl, and 1 mM TCEP before analysis. The samples with the longer construct of Nedd4-2^186–975 were dialyzed against a buffer containing 50 mM Tris-HCl (pH 8.0), 500 mM NaCl, 1 mM TCEP and 0.01% (v/v) Tergitol NP-40 (Sigma). […] The buffer density, viscosity, and partial specific volume of all proteins were estimated using the program […]. All sedimentation profiles were collected with absorbance optics at 280 nm. The sedimentation coefficients c(s) distributions were calculated from raw data using the SEDFIT software package. The calculated distributions were integrated to establish the weight-average sedimentation coefficients corrected to 20 °C and the density of water, sw(20,w). The sw values were plotted as a function of Nedd4-2^355–455 or 14-3-3η concentration to construct sw isotherms. The resulting isotherms were fitted with a A + B ⇌ AB model, as implemented in the SEDPHAT software package with previously known sw values of each component. The parameters were verified, and the loading concentrations were corrected using global Lamm-equation modeling, also implemented in the SEDPHAT software[66]

Data set [2] deals with all human 14-3-3 protein isoforms. The data set is described as follows: native TBE-PAGE isoform binding specificity. Conditions: 12% TBE-PAGE, 128 pmol 14-3-3 and 64 pmol pNedd4-2^335–455. The protocol:
In addition, we prepared pNedd4-2^335–455 to characterize 14-3-3 isoform binding specificity.
Supplementary Fig. S2. Characterization of the interaction between Nedd4-2 and 14-3-3 in solution. a Continuous sedimentation coefficient distributions (c(s)) of 10 μM pNedd4- […]
mixed at 1:2 (cyan) and 1:1 (green) molar ratios. The protein concentrations were 10 μM for 14335-455 335-455-3-3ε and 5 μM or 10 μM for pNedd4335-455 -2 . b Isoform binding specificity of pNedd4-2 .
Phosphorylated pNedd4-2 , 14-3-3 proteins and their complexes were separated by 12% TBE-PAGE to study the interaction of pNedd4-2335-455 with all seven human 14-3-3 isoforms (β, γ, ε, δ, ε, σ, and τ). The amounts of protein loaded on the native gel were 128 pmol of 14335-455 -3-3 and […]
(1 picture or pasted object on this page, not shown here)

Data set [3] addresses T1, 14-3-3η (Homo sapiens, UniProt Q04917).
T1 sequence (Q04917 1-246): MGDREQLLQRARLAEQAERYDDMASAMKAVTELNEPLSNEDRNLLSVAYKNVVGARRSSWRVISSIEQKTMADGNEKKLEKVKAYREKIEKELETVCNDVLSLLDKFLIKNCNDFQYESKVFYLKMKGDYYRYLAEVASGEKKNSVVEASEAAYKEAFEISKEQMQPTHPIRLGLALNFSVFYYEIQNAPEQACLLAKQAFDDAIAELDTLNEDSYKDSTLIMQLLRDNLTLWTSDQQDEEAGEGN
The data set is described as follows: native TBE-PAGE complex formation with 14-3-3η. Format: binding. Particulars: 12% native TBE-PAGE, 240 pmol 14-3-3η and 120 pmol Nedd4-2 variant. The protocol:
Based on our estimates, the KD value was lower than 50 nM, as further confirmed by global modeling. TEXT PRINTED IN THE PICTURE: (d) no label printed: KD < 50 nM
Fig. 3 Simultaneous phosphorylation of two 14-3-3 binding motifs pSer342 and pSer448 is required for tight complex formation between pNedd4-2^335–455 and 14-3-3η. a 12% Native TBE-PAGE showing the interaction between 14-3-3η (240 pmol) and Nedd^335–455 variants without (no pS) or with one, two or three phosphorylation sites (120 pmol); 14-3-3η protein alone was loaded on the penultimate lane. b–i Sedimentation velocity analytical ultracentrifugation analysis of the complexes between 14-3-3η and pNedd4-2^335–455 variants showing the sw isotherms of 14-3-3η and Nedd4-2 with all three phosphorylation sites pSer^342 + pThr^367 + pSer^448 (b), with no phosphorylation sites (c), with one phosphorylation site (pSer^342 (d), pThr^367 (e) and pSer^448 (f)), or with two phosphorylation sites (pSer^342 + pThr^367 (g), pSer^342 + pSer^448 (h) and pThr^367 + pSer^448 (i)). […] The c(s) distributions underlying the sw data points are shown in Supplementary Fig. S3.

Data set [4] can be described thus: SEC-SAXS structural parameters. Format: physicochemical. Conditions: for Rg (Guinier approximation): 20 mM Tris-HCl pH 7.5, 150 mM NaCl, 1 mM TCEP, 3% glycerol. Here is the method:
SAXS data were collected on the European Molecular Biology Laboratory (EMBL) P12 beamline, at the storage ring PETRA III (Deutsches Elektronen Synchrotron (DESY), Hamburg, Germany). The SEC-SAXS measurements were conducted in a buffer containing 20 mM Tris-HCl (pH 7.5), 150 mM NaCl, 1 mM TCEP, 3% (w/v) glycerol using Superdex 200 Increase 5/150 GL column (GE Healthcare) at the flow rate 0.5 ml.min^−1 at 293.15 K.
The loading concentrations of the samples were 2.2 mg.ml^−1 for Nedd4-2^186–975, 2 mg.ml^−1 for 14-3-3η and 8.9 mg.ml^−1 for the Nedd4-2^186–975:14-3-3η complex (1:2 molar stoichiometry). The injection volume of the samples was 52 μl. Elution profiles with the corresponding frames were processed using ATSAS 3.0.2 software CHROMIXS[71]. ATSAS software PRIMUS and GNOM were used to determine the excluded volume of the hydrated particle (Vp), the radius of gyration (Rg) and maximum particle dimension (Dmax)[72],[73]. The molecular mass (MW) was determined using a methods described by Rambo et al.[74]. Scattering profiles, P(r) functions, normalized Kratky plots and Guinier approximations were visualized using GraphPad Prism version 8.0.1 for Windows (GraphPad Software, La Jolla California USA, www.graphpad.com). The program DAMMIF was used to calculate the ab inicio molecular envelopes. For the complex, 10 surfaces were generated in slow mode and averaged using DAMAVER[76]. The averaged surfaces were used as the final filtered model of the complex, which was superimposed to the structural model using the SUPCOMB program (EMBL, Hamburg, Germany)[77].
Background: In gel filtration, larger molecules generally elute earlier.

Data set [5] has as its target T1, 14-3-3η. In words: SV-AUC (sedimentation velocity analytical ultracentrifugation), sw isotherm binding analysis. Particulars: 300 nM pNedd4-2^186–975 with 0.06−6 μM 14-3-3η, A + B ⇌ AB (Langmuir) model, one pNedd4-2 per 14-3-3η dimer, 50 mM Tris-HCl pH 8.0, 500 mM NaCl, 1 mM TCEP, 0.01% Tergitol NP-40, 20 °C, read-out: apparent KD. The protocol: Solution properties of Nedd4-2^186–975 and its interactions with 14-3-3 were characterized by sedimentation velocity analytical ultracentrifugation (SV AUC).
as §1, with “The sw values were plotted as a function of Nedd4-2^355–455 or 14-3-3η concentration to construct sw isotherms.” left out

The mark [6] stands for this setting: frames from the right side of the elution peak.
[7] abbreviates: frames from the top of the elution peak.

B1: pNedd4-2^335–455: shorter Nedd4-2 variant missing both the C2 and the HECT domains, all three phosphorylation sites (protein)
chain: SSRLRSCSVTDAVAEQGHLPPPSAPAGRARSSTVTGGEEPTPSVAYVHTTPGLPSGWEERKDAKGRTYYVNHNNRTTTWTRPIMQLAEDGASGSATNSNNHLIEPQIRRPRSLSSPTVTLS
modifications: phosphoserine at 342, phosphothreonine at 367, phosphoserine at 448; left off: His6, N-terminal, cleaved | GB1 domain of protein G, N-terminal, cleaved
notes: shorter Nedd4-2 variant missing both the C2 and the HECT domains, all three phosphorylation sites
For B1, in data set [1] (SV-AUC c(s) analysis), the f/f0 was found to be 1.5. The weight-averaged sedimentation coefficient sw(20,w), unit not given in data set [1] (corrected to 20.0 °C and density of water) stood at 1.4 S. Moreover, the “complex formation on native TBE-PAGE, all isoforms” value in data set [2] is reported as “forms stable complexes”.

B2: Nedd4-2^186–975: N-terminally truncated human Nedd4-2, missing the C2 domain (protein)
chain: HQEELPPPPLPPGWEEKVDNLGRTYYVNHNNRTTQWHRPSLMDVSSESDNNIRQINQEAAHRRFRSRRHISEDLEPEPSEGGDVPEPWETISEEVNIAGDSLGLALPPPPASPGSRTSPQELSEELSRRLQITPDSNGEQFSSLIQREPSSRLRSCSVTDAVAEQGHLPPPSAPAGRARSSTVTGGEEPTPSVAYVHTTPGLPSGWEERKDAKGRTYYVNHNNRTTTWTRPIMQLAEDGASGSATNSNNHLIEPQIRRPRSLSSPTVTLSAPLEGAKDSPVRRAVKDTLSNPQSPQPSPYNSPKPQHKVTQSFLPPGWEMRIAPNGRPFFIDHNTKTTTWEDPRLKFPVHMRSKTSLNPNDLGPLPPGWEERIHLDGRTFYIDHNSKITQWEDPRLQNPAITGPAVPYSREFKQKYDYFRKKLKKPADIPNRFEMKLHRNNIFEESYRRIMSVKRPDVLKARLWIEFESEKGLDYGGVAREWFFLLSKEMFNPYYGLFEYSATDNYTLQINPNSGLCNEDHLSYFTFIGRVAGLAVFHGKLLDGFFIRPFYKMMLGKQITLNDMESVDSEYYNSLKWILENDPTELDLMFCIDEENFGQTYQVDLKPNGSEIMVTNENKREYIDLVIQWRFVNRVQKQMNAFLEGFTELLPIDLIKIFDENELELLMCGLGDVDVNDWRQHSIYKNGYCPNHPVIQWFWKAVLLMDAEKRIRLLQFVTGTSRVPMNGFAELYGSNGPQLFTIEQWGSPEKLPRAHTCFNRLDLPPYETFEDLREKLLMAVENAQGFEGVD
modifications: phosphoserine at 342, phosphothreonine at 367, phosphoserine at 448 (PKA in vitro, confirmed by LC-MS); left off: His6, C-terminal, kept
notes: N-terminally truncated human Nedd4-2, missing the C2 domain
With B2, the “complex formation on native TBE-PAGE” value with 14-3-3η [3] is given as “phosphorylation-dependent interaction”. In data set [4] (setting [6]), the Dmax was 16.9 nm, the “Rg (GNOM)” value is recorded as 4.54 ± 0.02 nm, the “VP (Porod volume)” value came to 192 nm^3 and the “Rg (Guinier approximation)” value is 4.39 ± 0.02 nm. Also, in data set [4] (setting [7]), the Dmax was 18.3 nm, the “Rg (GNOM)” value is recorded as 4.92 ± 0.01 nm, the “VP (Porod volume)” value was 218 nm^3 and the “Rg (Guinier approximation)” value was found to be 4.67 ± 0.01 nm. Besides, in data set [4] (from P(r) functions), the “maximum particle dimension Dmax” value is listed as 169 Å. Also, the Kd in the data set with 14-3-3η [5] is about 50 nM.

For the origin of these results see article PMC8298602, “14-3-3-protein regulates Nedd4-2 by modulating interactions between HECT and WW domains” (Communications Biology, 2021).
